Tests used:
[1] = biological target: T1, Orai1-ΔN, Orai1-ΔC, Orai1-ΔN73 (Homo sapiens, UniProt Q96D31); assay: Whole-cell recording of ICRAC with truncated Orai1 and CAD; assay type: cell-based; settings: cells expressing Orai1-ΔN73
T1 construct: expressed in transfected cells; host or cells: HEK 293
Procedure: (§1) Electrophysiology. HEK 293 cells were transfected 8-24 h prior to electrophysiology experiments with STIM1- and Orai1-derived constructs in a 1:1 mass ratio using Lipofectamine 2000. […] ICRAC in cells cultured without LaCl3 was similar to that in cells cultured with LaCl3, but most cells without LaCl3 died soon after break-in.
(§2) Currents were recorded using standard whole-cell patch clamp techniques (Prakriya and Lewis, 2001). Pipettes of resistance 2-5 MΩ were filled with an internal solution containing (in mM) 150 Cs aspartate, 8 MgCl2, 10 EGTA, and 10 HEPES (pH 7.2 with CsOH). Currents were sampled at 5 kHz and filtered at 2 kHz, and all voltages were corrected for the junction potential of the pipette solution relative to Ringer's in the bath (−13 mV).
Patch-clamp Experiments. Pipette-membrane seals were formed in 2 mM Ca^2+ Ringer's solution. After break-in to the whole-cell configuration, voltage stimuli consisting of a 100-ms step to −100 mV followed by a 100-ms ramp from −100 to +100 mV were delivered every 5 s from the holding potential of +30 mV. After the currents reached a steady level (˜300 s for wild-type STIM1), the external solution was changed via a multibarrel local perfusion pipette to a high-Ca^2+ Ringer's containing (in mM) 130 NaCl, 4.5 KCl, 20 CaCl2, 1 MgCl2, 10 D-glucose, and 5 HEPES (pH 7.4 with NaOH). […]

[2] = biological target: T2, Orai1 (Homo sapiens, UniProt Q96D31); assay: Yeast split ubiquitin interaction assay, CAD with Orai1; assay type: binding; settings: NubG-Orai1 and CAD-Cub-LV in yeast
T2 sequence (Q96D31 whole entry): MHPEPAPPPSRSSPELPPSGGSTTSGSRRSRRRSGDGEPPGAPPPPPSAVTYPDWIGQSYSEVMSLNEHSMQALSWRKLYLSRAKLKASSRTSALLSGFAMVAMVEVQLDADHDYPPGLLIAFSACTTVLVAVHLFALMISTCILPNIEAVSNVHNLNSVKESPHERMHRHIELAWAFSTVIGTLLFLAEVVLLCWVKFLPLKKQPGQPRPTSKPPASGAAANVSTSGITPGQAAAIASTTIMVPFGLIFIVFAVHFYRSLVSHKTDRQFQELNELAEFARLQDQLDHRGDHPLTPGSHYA
Procedure: Split-Ubiquitin Yeast Two Hybrid Assay. Screening was performed according to the manufacturer's instructions (Dualsystems Biotech). Transformed yeast were selected on media lacking Trp and Leu (-TL). Interaction was observed by cell growth on plates lacking Trp, Leu, and His (TLH) in the presence of 3-aminotriazole (3-AT). Protein interactions were also assessed by measuring lacZ activity using the chromogenic substrate X-gal (5-bromo-4-chloro-3-indolyl-β-galactopyranoside).
Split-Ubiquitin Yeast Two Hybrid Assay. To generate fusion proteins with the N-terminal half of ubiquitin (Nub), full-length or fragments of Orai1 were amplified by PCR and cloned into the pDL2-Nubx vector (Dualsystems Biotech). The Nub sequence in the pDL2-Nubx plasmid contains a point mutation (NubG) that abolishes the spontaneous association of Nub to the C-terminal half of ubiquitin (Cub). The CAD was subcloned into the pAMBV4 vector, which contains Cub fused to a chimeric transcription factor consisting of the DNA binding domain from LexA and the VP16 transactivation domain.
As a third test for association of CAD and Orai1 in vivo, and to map the interaction domains of Orai1 we introduced both proteins into a yeast split ubiquitin interaction system. […]

[3] = biological target: T2, Orai1; assay: Whole-cell patch clamp recording of ICRAC in transfected HEK 293 cells; assay type: cell-based; set-up: expressed in transfected cells; host or cells: HEK 293; settings: compared with native ICRAC
Procedure: as §1, §2
Patch-clamp Experiments. Pipette-membrane seals were formed in 2 mM Ca^2+ Ringer's solution. After break-in to the whole-cell configuration, voltage stimuli consisting of a 100-ms step to −100 mV followed by a 100-ms ramp from −100 to +100 mV were delivered every 5 s from the holding potential of +30 mV. After the currents reached a steady level (˜300 s for wild-type STIM1), the external solution was changed via a multibarrel local perfusion pipette to a high-Ca^2+ Ringer's containing (in mM) 130 NaCl, 4.5 KCl, 20 CaCl2, 1 MgCl2, 10 D-glucose, and 5 HEPES (pH 7.4 with NaOH). All data were leak-corrected using the current elicited in 20 mM Ca^2+ Ringer's+10 μM LaCl3 at the end of the each experiment. LaCl3 and 2-APB were added directly to parent solutions on the day of the experiment from 10 mM and 100 mM stocks in H2O and DMSO, respectively.
As a definitive test for CRAC channel activation, we conducted whole-cell patch clamp recordings from HEK 293 cells transiently transfected with myc-Orai1 and either YFP-STIM1 or YFP-CAD. In cells expressing full length YFP-STIM1, ICRAC appeared over several minutes following break-in, consistent with the typical slow activation seen in response to passive store depletion (FIG. 2D). […] In contrast, inward current was present from the moment of break-in in cells expressing YFP-CAD (FIG. 2E). This current was identified as ICRAC based on its dependence on extracellular Ca^2+, inward rectification, sequential enhancement and inhibition by 2-APB, and inhibition by La^3+ (FIG. 2E and FIG. 10 C, D). ICRAC was not observed at break-in in HEK 293 cells transfected with YFP or YFP-CAD in the absence of Orai1 (FIG. 2F), consistent with the low level of endogenous STIM1 and Orai1 in these cells. […] Inactivation was restored by addition of STIM1 residues carboxy-terminal to CAD.

[4] = biological target: T2, Orai1; assay: Co-immunoprecipitation with Orai1 in HEK 293T cells; assay type: binding; set-up: expressed in transfected cells; host or cells: HEK 293; settings: 150 mM salt, 1% Triton X-100
Procedure: Immunoprecipitation and Immunoblot Analysis. Transfected HEK 293T cells (12-24 h) were washed with PBS and lysed in 50 mM Tris-HCl pH 7.5, 150 mM NaCl, 1% Triton X-100, and protease inhibitors. Lysates were spun at 12,000 rpm for 10 min, and the supernatant was incubated with anti-Flag M2 agarose beads (Sigma), or anti-myc or -HA antibody followed by IgG agarose beads (Pierce). Lysates and immunoprecipitates were subjected to SDS-PAGE, probed with HRP-conjugated secondary antibody and detected by enhanced chemiluminescence (Pierce).
CAD Associates with Orai1 in vivo and in vitro. Because cytosolic CAD is a potent activator of Orai1 channels and is not associated with the ER, we hypothesized that CAD binds to Orai1. To test this idea, we first expressed YFP-CAD with or without myc-Orai1 in HEK 293 cells and examined its intracellular localization. […] To provide additional evidence that CAD and Orai1 are part of the same protein complex we expressed Flag-tagged CAD and GFP-tagged Orai1 in HEK 293T cells and immunoprecipitated CAD with anti-Flag antibodies. GFP-myc-Orai1 was detected in the immunoprecipitates from cells co-expressing CAD and Orai1 but not from cells expressing CAD or Orai1 alone (FIG. 3B).
Thus, CAD and Orai1 form a protein complex in mammalian cells.

T1 sequence (Q96D31 74-301): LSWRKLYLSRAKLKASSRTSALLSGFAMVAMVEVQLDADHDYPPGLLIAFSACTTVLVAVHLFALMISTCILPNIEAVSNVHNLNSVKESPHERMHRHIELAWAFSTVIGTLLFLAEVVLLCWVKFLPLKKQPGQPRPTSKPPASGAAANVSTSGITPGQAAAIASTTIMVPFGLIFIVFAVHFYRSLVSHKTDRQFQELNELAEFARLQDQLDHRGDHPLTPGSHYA

Substance: CAD: 107-residue CRAC activation domain within the C-terminus of STIM1 (aa 342-448), SEQ ID NO:1
- constitutive ICRAC activation [1]: constitutively activated ICRAC
- interaction with Orai1 (growth on His selection, b-gal) [2]: interact with each other
- fast Ca2+-dependent inactivation of activated current [3]: lacked fast Ca^2+-dependent inactivation
- co-immunoprecipitation with Orai1 [4]: co-immunoprecipitates with Orai1

From patent US20120165265A1, “Calcium Signaling Modulators Involving STIM and ORAI Proteins” (priority 2009, published 2012)
